Test results from patent US20180064808A1 (Hoffmann-La Roche, published 2018).

B1: FAP binder 28H1 (IgG) (antibody, V domains shown)
VH: EVQLLESGGGLVQPGGSLRLSCAASGFTFSSHAMSWVRQAPGKGLEWVSAIWASGEQYYADSVKGRFTISRDNSKNTLYLQMNSLRAEDTAVYYCAKGWLGNFDYWGQGTLVTVSS
VL: EIVLTQSPGTLSLSPGERATLSCRASQSVSRSYLAWYQQKPGQAPRLLIIGASTRATGIPDRFSGSGSGTDFTLTISRLEPEDFAVYYCQQGQVIPPTFGQGTKVEIK
notes: also called FAP(28H1)
B2: DR5(5E11)-28H1 VHCL 2+2 (bispecific antibody, human IgG1, kappa)
heavy: not shown
light: EIVLTQSPGTLSLSPGERATLSCRASQSVSSSYLAWYQQKPGQAPRLLIYGASSRATGIPDRFSGSGSGTDFTLTISRLEPEDFAVYYCQQGTTHPITFGQGTKVEIKRTVAAPSVFIFPPSDEQLKSGTASVVCLLNNFYPREAKVQWKVDNALQSGNSQESVTEQDSKDSTYSLSSTLTLSKADYEKHKVYACEVTHQGLSSPVTKSFNRGEC
chain: EIVLTQSPGTLSLSPGERATLSCRASQSVSRSYLAWYQQKPGQAPRLLIIGASTRATGIPDRFSGSGSGTDFTLTISRLEPEDFAVYYCQQGQVIPPTFGQGTKVEIKSSASTKGPSVFPLAPSSKSTSGGTAALGCLVKDYFPEPVTVSWNSGALTSGVHTFPAVLQSSGLYSLSSVVTVPSSSLGTQTYICNVNHKPSNTKVDKKVEPKSCD
notes: 28H1 CrossFab domain (VHCL) fused to the C-terminus of the anti-DR5 (5E11) heavy chain by a (G4S)4 connector; also called DR5-FAP bispecific antibody; bispecific, tetravalent DR5-FAP CrossMab molecule
B3: DR5(5E11)-28H1 VHCL 2+2 P329GLALA (bispecific antibody, human IgG1, kappa, L234A L235A)
heavy: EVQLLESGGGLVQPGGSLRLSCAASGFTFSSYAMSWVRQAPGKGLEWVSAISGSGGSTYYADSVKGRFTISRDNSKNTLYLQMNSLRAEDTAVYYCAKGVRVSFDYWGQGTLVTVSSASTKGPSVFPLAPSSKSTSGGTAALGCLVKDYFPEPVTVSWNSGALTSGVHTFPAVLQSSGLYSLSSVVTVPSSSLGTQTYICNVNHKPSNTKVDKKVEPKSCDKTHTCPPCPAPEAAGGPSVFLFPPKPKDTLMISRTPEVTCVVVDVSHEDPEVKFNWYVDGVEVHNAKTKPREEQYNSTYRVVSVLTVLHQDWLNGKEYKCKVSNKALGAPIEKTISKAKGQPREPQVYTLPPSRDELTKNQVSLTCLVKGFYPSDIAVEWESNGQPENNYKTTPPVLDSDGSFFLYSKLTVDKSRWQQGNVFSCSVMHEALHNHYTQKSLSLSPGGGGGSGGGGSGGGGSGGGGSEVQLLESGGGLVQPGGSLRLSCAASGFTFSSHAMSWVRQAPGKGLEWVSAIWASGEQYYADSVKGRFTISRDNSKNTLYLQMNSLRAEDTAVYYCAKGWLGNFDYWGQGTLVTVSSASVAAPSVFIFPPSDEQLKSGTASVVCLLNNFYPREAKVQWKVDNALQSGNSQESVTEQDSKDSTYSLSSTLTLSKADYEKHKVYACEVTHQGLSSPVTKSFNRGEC
light: B2 light
chain: B2 chain
notes: As DR5(5E11)-28H1 VHCL 2+2, with removal of the C-terminal lysine and the P329G/LALA mutation in Fc; also called DR5-FAP bispecific antibody; bispecific, tetravalent DR5-FAP CrossMab molecule

Key:
[1] = target: T1, human Fibroblast Activation Protein (FAP) (human, UniProt Q12884 27-760); experiment: Affinity human [nM], IgG format; method not stated
T1 construct: also called recombinant human FAP; Seprase
T1 sequence (Q12884 27-760 limits assumed): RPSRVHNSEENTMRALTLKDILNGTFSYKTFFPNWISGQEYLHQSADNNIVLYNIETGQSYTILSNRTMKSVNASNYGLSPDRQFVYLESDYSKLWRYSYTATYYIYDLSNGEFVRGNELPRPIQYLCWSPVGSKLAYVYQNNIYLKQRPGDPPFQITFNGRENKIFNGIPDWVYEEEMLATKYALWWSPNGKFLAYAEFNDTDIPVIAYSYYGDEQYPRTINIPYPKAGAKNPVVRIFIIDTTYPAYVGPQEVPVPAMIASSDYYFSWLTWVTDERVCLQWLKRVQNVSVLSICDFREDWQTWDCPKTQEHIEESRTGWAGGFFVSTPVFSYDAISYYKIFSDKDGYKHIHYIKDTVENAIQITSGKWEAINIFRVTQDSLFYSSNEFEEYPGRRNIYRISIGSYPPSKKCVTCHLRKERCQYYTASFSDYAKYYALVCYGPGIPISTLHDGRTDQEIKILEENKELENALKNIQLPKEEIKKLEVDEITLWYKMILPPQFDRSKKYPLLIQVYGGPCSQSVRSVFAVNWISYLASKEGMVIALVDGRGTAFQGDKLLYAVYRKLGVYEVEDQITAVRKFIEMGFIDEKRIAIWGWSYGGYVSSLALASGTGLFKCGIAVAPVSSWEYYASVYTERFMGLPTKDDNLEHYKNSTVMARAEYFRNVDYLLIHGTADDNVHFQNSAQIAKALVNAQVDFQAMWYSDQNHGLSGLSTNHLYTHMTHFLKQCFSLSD

murine FAP = target: T2, murine FAP (murine, UniProt P97321 27-761); experiment: SPR (Biacore), simultaneous binding
T2 construct: also called mouse FAP
T2 sequence (P97321 27-761 limits assumed): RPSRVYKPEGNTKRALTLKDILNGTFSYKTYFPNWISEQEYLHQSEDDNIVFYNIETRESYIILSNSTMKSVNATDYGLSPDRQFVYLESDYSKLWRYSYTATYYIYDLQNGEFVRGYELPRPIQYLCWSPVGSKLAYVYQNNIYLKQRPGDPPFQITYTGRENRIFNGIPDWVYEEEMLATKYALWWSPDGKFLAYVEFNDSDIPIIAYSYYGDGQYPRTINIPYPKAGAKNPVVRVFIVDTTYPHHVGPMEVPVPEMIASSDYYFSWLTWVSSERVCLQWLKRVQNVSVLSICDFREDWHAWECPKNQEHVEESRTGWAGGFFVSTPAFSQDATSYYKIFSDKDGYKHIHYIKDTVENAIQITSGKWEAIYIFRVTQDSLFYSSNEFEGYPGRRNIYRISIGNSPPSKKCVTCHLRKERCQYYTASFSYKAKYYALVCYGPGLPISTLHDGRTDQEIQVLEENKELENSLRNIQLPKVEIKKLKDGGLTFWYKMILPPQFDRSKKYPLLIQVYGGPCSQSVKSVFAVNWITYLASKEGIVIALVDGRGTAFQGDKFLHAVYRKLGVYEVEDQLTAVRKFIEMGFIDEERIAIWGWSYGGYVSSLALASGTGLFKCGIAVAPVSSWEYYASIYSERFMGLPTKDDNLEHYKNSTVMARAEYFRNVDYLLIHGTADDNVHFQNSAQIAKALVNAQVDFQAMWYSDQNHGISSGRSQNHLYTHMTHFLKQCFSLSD

[2] = target: T1, human Fibroblast Activation Protein …; experiment: SPR (Biacore), simultaneous binding

Binder | Kd [1] [nM] | binding result (murine FAP) | binding result [2]
B1 | 2.6 | – | –
B2 | – | binds | binds
B3 | – | binds | binds
